From patent US20250074996A1 come the findings set out here.

This test concerns the target CD3E on the surface of Jurkat-NFAT-Luc cells (UniProt P07766). As to the kind of experiment: cell-based or functional assay.

Sequence of CD3E on the surface of Jurkat-NFAT-Luc cells (P07766 23-207): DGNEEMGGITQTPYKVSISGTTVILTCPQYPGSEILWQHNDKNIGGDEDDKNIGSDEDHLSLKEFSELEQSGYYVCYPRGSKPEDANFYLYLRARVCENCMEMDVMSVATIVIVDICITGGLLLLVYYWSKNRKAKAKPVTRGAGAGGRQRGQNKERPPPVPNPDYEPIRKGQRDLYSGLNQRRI

B1: hz11B7.5/SP34.24 (bispecific antibody, V domains shown)
VH 1: QVQLVQSGAEVKKPGSSVKVSCKASGYTFTTYTMHWVRQAPGQGLEWIGFIIPSSGYTSYNQNFKDKVTLTADKSTSTAYMELSSLRSEDTAVYFCTGGQARAYYPLDYWGQGTLVTVSS
VL 1: EIVMTQSPATLSVSPGERATLSCRASQSIGTTIHWYQQKPGQAPRLLIKYASESISGIPSRFSGSGSGTEFTLTISSLQSEDFAVYYCQQSYNWPRTFGGGTKVEIK
VH 2: EVQLVESGGGLVQPGGSLKLSCAASGFTFNTYAMNWVRQASGKGLEWVGRIRSKYNNYATYYADSVKDRFTISRDDSKSTLYLQMNSLKTEDTAVYYCARHGNFGQSYVSWFAYWGQGTTVTVSS
VL 2: QAVVTQEPSLTVSPGGTVTLTCRSSTGAVTTSNYANWVQQKPGQAPRGLIGGTNKRAPGVPARFSGSLLGDKAALTLLGAQPEDEAEYYCALWYSNLWVFGQGTKLTVL
The molecule B1 gave an EC50 of Jurkat-NFAT-Luc luciferase activation; tumor cells 8226 of 5.39 pM, an EC50 of Jurkat-NFAT-Luc luciferase activation; tumor cells ARD of 2.04 pM, an EC50 of Jurkat-NFAT-Luc luciferase activation; tumor cells H929 of 2.72 pM and an EC50 of Jurkat-NFAT-Luc luciferase activation; tumor cells L363 of 2.79 pM. The EC50 of Jurkat-NFAT-Luc luciferase activation; tumor cells MM.1S came out at 1.98 pM and the EC50 of Jurkat-NFAT-Luc luciferase activation; tumor cells U266 was found to be 4.09 pM.
